Laboratory results published in patent US20070053894.

Test system: Soluble human recombinant p97 (melanotransferrin)
Sequence (chain, as listed by the source): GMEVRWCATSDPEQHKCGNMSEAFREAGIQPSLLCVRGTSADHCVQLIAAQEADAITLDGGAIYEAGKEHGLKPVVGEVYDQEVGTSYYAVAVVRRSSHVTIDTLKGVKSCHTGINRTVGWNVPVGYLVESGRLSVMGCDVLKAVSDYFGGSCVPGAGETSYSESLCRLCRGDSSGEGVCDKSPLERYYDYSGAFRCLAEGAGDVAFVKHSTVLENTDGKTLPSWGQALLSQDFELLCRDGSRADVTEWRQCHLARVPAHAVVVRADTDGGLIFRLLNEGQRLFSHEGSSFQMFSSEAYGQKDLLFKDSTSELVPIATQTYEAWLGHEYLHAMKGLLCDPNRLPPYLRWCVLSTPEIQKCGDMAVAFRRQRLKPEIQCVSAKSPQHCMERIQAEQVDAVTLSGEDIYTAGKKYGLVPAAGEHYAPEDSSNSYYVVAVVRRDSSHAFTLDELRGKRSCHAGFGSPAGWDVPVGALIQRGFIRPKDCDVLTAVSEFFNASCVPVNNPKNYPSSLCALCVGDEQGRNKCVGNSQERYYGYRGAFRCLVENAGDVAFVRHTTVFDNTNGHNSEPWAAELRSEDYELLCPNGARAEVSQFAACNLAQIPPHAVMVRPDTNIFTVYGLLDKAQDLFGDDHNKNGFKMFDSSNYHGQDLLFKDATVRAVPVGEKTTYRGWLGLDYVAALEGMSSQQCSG

## pro-urokinase plasminogen activator (pro-uPA)
  VLK-pNA hydrolysis (plasminogen activation by pro-uPA) with 70 nM p97 and 30 nM plasminogen, after 180 min: the VLK-pNA hydrolysis is 4-fold higher after 180 min
  VLK-pNA hydrolysis by 90 nM pro-uPA with 70 nM p97, without plasminogen: goes from less than 50 AU/min in the absence of p97 to more than 450 AU/min when p97 is added
  half-maximal stimulation of plasminogen cleavage by pro-uPA (initial rates of plasmin activity): half-maximal stimulation occurring at 25±6 nM
  increase of catalytic efficiency of plasminogen activation by pro-uPA with 250 nM p97: increasing the catalytic efficiency by a factor of 2.4-fold
